Data set [1] has as its target TFIIB (untagged);TBP;TFIIF;RNA polymerase II (human;human;human;human, UniProt Q00403;P20226;P35269;P13984;P24928;P30876;P19387;O15514;P19388;P61218;P62487;P52 …, |||). The experiment in a line: EMSA.
The target in data set [2] is AF647-TFIIB (TFIIB-SNAP);TBP;TFIIF;RNA polymerase II (human;human;human;human, UniProt Q00403;P20226;P35269;P13984;P24928;P30876;P19387;O15514;P19388;P61218;P62487;P52 …, |||). The experiment in a line: EMSA. (In general: A gel shift assay detects complexes by their altered migration in electrophoresis.)
Chain of AF647-TFIIB (TFIIB-SNAP);TBP;TFIIF;RNA polymerase II (Q00403 whole entry, chain 1 of 2): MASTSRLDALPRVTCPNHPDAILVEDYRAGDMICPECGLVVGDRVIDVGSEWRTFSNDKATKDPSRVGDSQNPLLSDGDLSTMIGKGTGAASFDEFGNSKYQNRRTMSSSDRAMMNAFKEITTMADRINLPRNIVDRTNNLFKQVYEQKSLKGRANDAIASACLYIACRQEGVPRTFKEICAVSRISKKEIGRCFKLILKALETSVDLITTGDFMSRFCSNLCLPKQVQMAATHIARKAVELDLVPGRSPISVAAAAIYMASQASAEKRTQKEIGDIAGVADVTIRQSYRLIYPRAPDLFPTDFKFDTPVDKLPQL
Chain of AF647-TFIIB (TFIIB-SNAP);TBP;TFIIF;RNA polymerase II (P20226 whole entry, chain 2 of 2): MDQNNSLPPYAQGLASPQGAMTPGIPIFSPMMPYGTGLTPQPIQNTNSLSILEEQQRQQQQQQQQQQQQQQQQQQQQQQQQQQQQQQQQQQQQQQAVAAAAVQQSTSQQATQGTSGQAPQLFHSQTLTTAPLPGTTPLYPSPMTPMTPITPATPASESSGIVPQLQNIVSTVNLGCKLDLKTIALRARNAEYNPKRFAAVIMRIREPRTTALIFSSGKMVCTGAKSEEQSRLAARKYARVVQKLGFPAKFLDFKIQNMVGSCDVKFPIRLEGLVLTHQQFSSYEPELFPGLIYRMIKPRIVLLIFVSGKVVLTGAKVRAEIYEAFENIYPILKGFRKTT

Chain of TFIIB (untagged);TBP;TFIIF;RNA polymerase II (Q00403 whole entry, chain 1 of 2): as the sequence (Q00403 whole entry, chain 1 of 2) above
Chain of TFIIB (untagged);TBP;TFIIF;RNA polymerase II (P20226 whole entry, chain 2 of 2): as the sequence (P20226 whole entry, chain 2 of 2) above

B1: three piece AdMLP DNA (-40 to +37), pre-melted bubble (dsDNA)
DNA 1: AAGGGGGGCTATAAAAGGGGGTGGGGGCGCGAAGCAGGAGTAGACTATCTTTAATCACTA
DNA 2: CCTGAGGTTAGTGTGAGTAGTGATTAAAGATAGTGATGAGGACGAACGCGCCCCCACCCCCTTTTATAGCCCCCCTT
DNA 3: CTCACACTAACCTCAGG
As for B1, the binding result in data set [1] and in data set [2] was “binds” throughout.

Values taken from doi:10.1101/2019.12.19.882902.
